{"source": "patent US20230398229A1", "about": "“ANTIBODY DRUG […] AGONISTS, COMBINATIONS AND METHODS OF USE” (Mersana Therapeutics, Inc., priority 2022, published 2023)", "key": {"rat HER2": {"target": "rat HER2 (Rattus norvegicus, UniProt P06494)", "sequence (P06494 23-1257)": "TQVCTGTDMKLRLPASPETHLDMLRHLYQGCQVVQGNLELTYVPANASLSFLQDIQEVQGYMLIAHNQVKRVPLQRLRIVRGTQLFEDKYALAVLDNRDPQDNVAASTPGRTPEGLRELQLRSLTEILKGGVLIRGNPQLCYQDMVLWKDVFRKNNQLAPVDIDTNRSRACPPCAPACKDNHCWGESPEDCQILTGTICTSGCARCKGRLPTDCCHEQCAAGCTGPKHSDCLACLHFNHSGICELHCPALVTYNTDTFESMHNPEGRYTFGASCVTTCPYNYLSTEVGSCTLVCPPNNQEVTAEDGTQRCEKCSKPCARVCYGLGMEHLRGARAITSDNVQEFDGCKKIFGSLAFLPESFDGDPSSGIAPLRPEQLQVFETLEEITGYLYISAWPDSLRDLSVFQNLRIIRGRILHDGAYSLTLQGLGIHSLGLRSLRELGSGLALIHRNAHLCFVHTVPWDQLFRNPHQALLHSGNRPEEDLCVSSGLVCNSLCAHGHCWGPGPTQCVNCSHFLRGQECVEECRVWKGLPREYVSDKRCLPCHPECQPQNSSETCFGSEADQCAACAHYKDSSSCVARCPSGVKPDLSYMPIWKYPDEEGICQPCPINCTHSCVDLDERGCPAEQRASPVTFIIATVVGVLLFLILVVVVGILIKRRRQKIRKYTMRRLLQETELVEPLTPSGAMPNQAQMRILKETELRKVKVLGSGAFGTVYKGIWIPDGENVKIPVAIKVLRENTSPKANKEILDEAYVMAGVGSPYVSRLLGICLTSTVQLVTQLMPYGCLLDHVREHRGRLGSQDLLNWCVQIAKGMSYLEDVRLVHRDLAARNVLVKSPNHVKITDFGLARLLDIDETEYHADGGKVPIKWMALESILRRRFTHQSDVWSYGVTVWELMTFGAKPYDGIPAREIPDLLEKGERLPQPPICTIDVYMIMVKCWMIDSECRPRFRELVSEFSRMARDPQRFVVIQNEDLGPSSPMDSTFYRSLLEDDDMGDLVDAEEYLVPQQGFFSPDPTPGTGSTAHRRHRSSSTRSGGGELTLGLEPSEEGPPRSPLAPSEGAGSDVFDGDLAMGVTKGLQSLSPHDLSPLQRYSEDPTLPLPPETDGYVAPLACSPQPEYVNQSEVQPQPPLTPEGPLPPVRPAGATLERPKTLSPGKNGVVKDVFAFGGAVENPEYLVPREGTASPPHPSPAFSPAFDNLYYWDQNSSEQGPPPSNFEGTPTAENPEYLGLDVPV", "experiment": "Binding of antibody to rat HER2"}, "HER2": {"target": "HER2 (Homo sapiens, UniProt P04626)", "experiment": "Inhibition of HER2 functional activity in vitro"}}, "data": [{"substance": "XMT-1519: anti-Her2 antibody disclosed in U.S. Pat. No. 9,555,112 and 9,738,720", "values": [{"measurement": "Binding to rat HER2", "setting": "rat HER2", "value": "does not bind"}, {"measurement": "Functional activity of HER2", "setting": "HER2", "value": "inhibit the functional activity of HER2"}]}]}
